The record followed here is patent publication US20160090422A1 (Genentech, published 2016).

Assay [1] addresses T1, human CRTh2 (human, UniProt Q9Y5Y4 1-395).
T1 construct: also native CRTh2 on primary human basophils, eosinophils and Th2 cells; also called hCRTh2; chemoattractant receptor-homologous molecule expressed on T helper 2 cells
T1 sequence: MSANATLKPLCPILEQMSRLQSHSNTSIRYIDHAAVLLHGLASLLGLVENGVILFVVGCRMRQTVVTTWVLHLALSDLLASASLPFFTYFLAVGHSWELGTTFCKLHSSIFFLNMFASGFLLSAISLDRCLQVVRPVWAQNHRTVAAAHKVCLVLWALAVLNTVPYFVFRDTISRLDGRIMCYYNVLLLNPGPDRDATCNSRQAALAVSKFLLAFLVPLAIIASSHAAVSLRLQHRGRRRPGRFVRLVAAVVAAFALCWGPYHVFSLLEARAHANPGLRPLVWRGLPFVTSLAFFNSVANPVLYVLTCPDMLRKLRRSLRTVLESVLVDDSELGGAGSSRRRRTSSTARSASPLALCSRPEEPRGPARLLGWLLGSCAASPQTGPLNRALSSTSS
Nature of the assay: radioligand cell binding assay with homologous competition (Scatchard), 300.19 cells expressing human CRTh2. How it is done:
(§1) The equilibrium dissociation constants (KD) for anti-CRTH2 antibodies binding to cells expressing recombinant CRTh2 receptor were determined using a radioligand cell binding assay. […] The cells expressing the CRTh2 receptor were incubated for 2 hours at room temperature with a fixed concentration of iodinated anti-CRTh2 antibody combined with increasing concentrations of unlabeled anti-CRTh2 antibody and including a zero-added, buffer only sample. After the 2-hour incubation, the competition reactions were transferred to a Millipore Multiscreen filter plate and washed 4 times with binding buffer to separate the free from bound iodinated antibody. The filters were counted on a Wallac Wizard 1470 gamma counter. The binding data was evaluated using NewLigand software (Genentech), which uses the fitting algorithm of Munson and Rodbard to determine the binding affinity of the anti-CRTh2 antibody (Munson and Rodbard, Anal. Biochem, 1980; 107: 220-239).
(§2) To obtain a direct measurement of the KD value of humanized antibodies h19A2.v12 and h19A2.v60, Fab fragments of these antibodies were generated and subjected to radioligand cell binding assays (FIG. 4B).

In assay [2] the target is T1, human CRTh2. Put plainly: radioligand cell binding assay with homologous competition (Scatchard), 293 cells expressing human CRTh2. The procedure: as §1, §2
Assay [3] concerns the target T2, rhesus monkey CRTh2 (rhesus monkey, UniProt Q9Y5Y4 1-395 (human entry)).
T2 construct: also native on primary rhesus basophils and eosinophils; also called rhesus CRTh2
T2 chain: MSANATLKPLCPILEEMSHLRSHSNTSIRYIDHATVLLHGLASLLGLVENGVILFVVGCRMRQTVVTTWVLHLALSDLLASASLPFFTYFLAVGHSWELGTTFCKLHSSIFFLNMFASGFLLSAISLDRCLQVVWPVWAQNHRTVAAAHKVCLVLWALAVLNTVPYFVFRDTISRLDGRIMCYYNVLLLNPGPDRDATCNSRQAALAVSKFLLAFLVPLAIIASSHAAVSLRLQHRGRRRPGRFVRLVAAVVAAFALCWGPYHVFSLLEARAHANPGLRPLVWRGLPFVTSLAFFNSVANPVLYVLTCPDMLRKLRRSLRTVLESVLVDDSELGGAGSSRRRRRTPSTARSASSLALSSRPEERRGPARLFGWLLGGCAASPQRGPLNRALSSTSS
Nature of the assay: flow cytometry, 293 cells expressing amino-terminal gD-tagged rhesus CRTh2; antibody at 10, 1 and 0.1 ug/ml. On the technique in general: In flow cytometry, cells or beads pass a laser one at a time.

B1: murine anti-CRTh2 antibody 19A2 (antibody, V domains shown)
VH: EVKLVESGGGLVQPGGSLKLSCAASGFTFSSYSMSWVRQTPEKRLEWVAYISNGGSTTYYPGTVEGRFTISRDNAKNTLFLQMSSLRSKDTAMYYCARHRTNWDFDYWGQGTTLTVSS
VL: DIQMTQSPASLSVSVGETVTITCRASENIYSNLAWYQQKQGKSPQLVVYAATQLADGVPSRFSGSGSGTQYSLKINSLQSEDFGSYYCQHFWITPWTFGGGTKLEIK
notes: whole IgG in the Scatchard assay; also called mu19A2; Mab 19A2
For orientation: Kd means the equilibrium constant for the complex coming apart. As for B1, the Kd in assay [1] came out at 10.2 nM; in assay [2] it was 2 nM.

B2: humanized and engineered anti-CRTh2 antibody hu19A2.v12 (antibody, human IgG1, kappa, V domains shown)
VH: EVQLVESGGGLVQPGGSLRLSCAASGFTFSSYSMSWVRQAPGKGLEWVAYISNGGSTTDYPGTVEGRFTISRDNSKNTLYLQMNSLRAEDTAVYYCARHRTNWDFDYWGQGTLVTVSS
VL: DIQMTQSPSSLSASVGDRVTITCRASENIYWNLAWYQQKPGKAPKLVVYAATQLADGVPSRFSGSGSGTDYTLTISSLQPEDFATYYCQHFWITPWTFGQGTKVEIKR
notes: Human IgG1; whole antibody as used in flow cytometry; also called h19A2.v12
B2: the binding result in assay [3] was “binds”.
